We go through one molecule from patent publication US7741124B2, “Detection procedures for fibrinogen and/or fibrinogen derivatives” (priority 2003, dated 2010).

The assay relates to vancomycin. Nature of the assay: Vancomycin-reactivity with fibrinogen split products (t-PA incubated plasma) or BrCN-cleaved fibrinogen. The format is biochemical. The settings on record: 50 μl 1000 IU/ml t-PA. As for the experimental part:
25 μl P-Pool were incubated with 25 μl 0 mM or 15 mM CT in PBS for 60 min (RT). Then 50 μl 1000 IU/ml t-PA, 0.1% Triton X 100® in PBS were added. […] In addition, 10 mg/ml BrCN-cleaved fibrinogen in 6% BSA-PBS or in pooled serum were assayed in the FIATA.

B1: t-PA: t-PA, 1000 IU/ml in PBS, 0.1% Triton X 100 (protein, UniProt P00750 36-562, looked up)
Tissue-type plasminogen …: SYQVICRDEKTQMIYQQHQSWLRPVLRSNRVEYCWCNSGRAQCHSVPVKSCSEPRCFNGGTCQQALYFSDFVCQCPEGFAGKCCEIDTRATCYEDQGISYRGTWSTAESGAECTNWNSSALAQKPYSGRRPDAIRLGLGNHNYCRNPDRDSKPWCYVFKAGKYSSEFCSTPACSEGNSDCYFGNGSAYRGTHSLTESGASCLPWNSMILIGKVYTAQNPSAQALGLGKHNYCRNPDGDAKPWCHVLKNRRLTWEYCDVPSCSTCGLRQYSQPQFRIKGGLFADIASHPWQAAIFAKHRRSPGERFLCGGILISSCWILSAAHCFQERFPPHHLTVILGRTYRVVPGEEEQKFEVEKYIVHKEFDDDTYDNDIALLQLKSDSSRCAQESSVVRTVCLPPADLQLPDWTECELSGYGKHEALSPFYSERLKEAHVRLYPSSRCTSQHLLNRTVTDNMLCAGDTRSGGPQANLHDACQGDSGGPLVCLNDGRMTLVGIISWGLGCGQKDVPGVYTKVTNYLDWIRDNMRP
In the case of B1, the “time for 50% loss of vancomycin reactivity” value is, setting by setting: (15 mM CT-oxidized plasma) “about 1 h”; (unoxidized plasma) 6 h. In addition, the “incubation time for complete loss of vancomycin reactivity” value (25 μl 15 mM CT-oxidized citrated plasma) is listed as 3 h.
